Data reported in paper PMC3701577, “Characterization of DNA Binding Property of the HIV-1 Host Factor and Tumor Suppressor Protein Integrase Interactor 1 (INI1/hSNF5)”.

B1: U5 HIV-1 LTR DNA (U5.4/U5.5) (dsDNA)
DNA 1: ACTGCTAGAGATTTTCCGGATCC
DNA 2: GGATCCGGAAAATCTCTAGCA

Legend:
[1] = molecular target: INI1 DNA binding domain (INI1/hSNF5 amino acids 105-183) (human) (UniProt Q12824); experiment: AUC; sedimentation equilibrium, 60 µM INI1 DBD (monomer concentration), 4°C, 13,000-28,000 rpm, 20 mM HEPES-KOH pH 7.2, 100 mM KCl, 5-7% glycerol, 1 mM DTT, absorbance at 280 nm; species analysis in SEDPHAT
[2] = molecular target: T1, SNR1 DBD, SNR1(90-167) (Drosophila melanogaster, UniProt Q7K0F9 90-167); experiment: Ni-NTA pull-down; 55 uM dimer, 110 uM DNA; ITC at 25 C (buffer not stated in material; protein dialyzed in 20 mM HEPES pH 7.2, 100 mM KCl, 10% glycerol, 0.1 mM EDTA, 1 mM DTT); pull-down in 20 mM HEPES pH 7.2, 100 mM KCl, 5% glycerol, 1 mM DTT, RT 30 min then ice; conditions: protein: recombinant; tags: His tag (pET28a), 37-aa N-terminal extension; chain copies: 2; 5' overhang 2 nt on strand 1 (AC)
T1 sequence: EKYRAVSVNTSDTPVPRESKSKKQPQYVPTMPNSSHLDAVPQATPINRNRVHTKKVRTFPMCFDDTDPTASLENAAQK

[3] = molecular target: INI1 DBD, INI1(105-183) (human, UniProt Q12824 105-183); experiment: ITC; 10 uM monomer, 55 uM DNA in syringe; one-site, N=0.49; ITC at 25 C (buffer not stated in material; protein dialyzed in 20 mM HEPES pH 7.2, 100 mM KCl, 10% glycerol, 0.1 mM EDTA, 1 mM DTT); pull-down in 20 mM HEPES pH 7.2, 100 mM KCl, 5% glycerol, 1 mM DTT, RT 30 min then ice; conditions: protein: recombinant; tags: His tag (pET28a), 24-aa N-terminal extension; 5' overhang 2 nt on strand 1 (AC)
[4] = molecular target: INI1 DBD dimer, INI1(105-183) (human, UniProt Q12824 105-183); experiment: ITC; 30 uM dimer, 325 uM DNA in syringe; sequential model, first binding event; ITC at 25 C (buffer not stated in material; protein dialyzed in 20 mM HEPES pH 7.2, 100 mM KCl, 10% glycerol, 0.1 mM EDTA, 1 mM DTT); pull-down in 20 mM HEPES pH 7.2, 100 mM KCl, 5% glycerol, 1 mM DTT, RT 30 min then ice; conditions: protein: recombinant; tags: His tag (pET28a), 24-aa N-terminal extension; chain copies: 2; 5' overhang 2 nt on strand 1 (AC)
Chain of INI1 DBD dimer, INI1(105-183) (Q12824 105-183): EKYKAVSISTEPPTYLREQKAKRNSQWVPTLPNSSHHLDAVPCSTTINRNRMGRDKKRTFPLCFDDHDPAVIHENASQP

Chain of INI1 DBD, INI1(105-183) (Q12824 105-183): as above

Molecule	stoichiometry N [1]	binding result [2]	Kd [3] [µM]	Kd [4] [µM]
INI1 DNA binding domain (INI1/hSNF5 amino acids 105-183) (from UniProt Q12824 105-183) (domain or fragment)	2			
B1		binds	0.94 ± 0.02	222 ± 51.8
